The results in this text go back to PMC8800115 (2021).

The test has as its target K63-linked tetraubiquitin (UniProt P0CG48 1-76, G76 to K63 isopeptide bonds between adjacent ubiquitins). Put plainly: ITC.

B1: ASCC2 CUE domain (construct of the ITC experiments of Figure 2) (domain or fragment)
chain: AAVGPAMCGVELDSLISQVKDLLPDLGEGFILACLEYYHYDPEQVINNILEERLAPTLSQLDRNLDREM
For the molecule B1, the affinity, expressed as Kd, was 2100 nM.

By Kd is commonly meant the free concentration of one partner at which half of the binding sites on the other are occupied at equilibrium, for simple one-to-one binding.
